In US20180273595A1 one finds Kd data, which are given here for two molecules.

What is called Kd is the concentration at which binding is half-saturated.

This test deals with T1, recombinant His-tagged full-length ERG, P11308.
T1 chain: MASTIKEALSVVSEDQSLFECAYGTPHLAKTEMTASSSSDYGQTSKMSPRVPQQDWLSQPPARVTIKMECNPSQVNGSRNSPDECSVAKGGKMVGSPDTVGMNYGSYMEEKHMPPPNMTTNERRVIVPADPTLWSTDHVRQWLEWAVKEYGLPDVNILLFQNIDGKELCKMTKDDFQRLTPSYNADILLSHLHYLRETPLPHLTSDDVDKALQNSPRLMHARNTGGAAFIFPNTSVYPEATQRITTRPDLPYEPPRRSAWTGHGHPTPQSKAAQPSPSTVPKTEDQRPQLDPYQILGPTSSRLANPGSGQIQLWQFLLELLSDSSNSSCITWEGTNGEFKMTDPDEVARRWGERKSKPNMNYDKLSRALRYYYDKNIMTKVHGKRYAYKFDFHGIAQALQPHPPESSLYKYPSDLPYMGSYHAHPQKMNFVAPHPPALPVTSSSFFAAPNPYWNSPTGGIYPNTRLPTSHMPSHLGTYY
The test is described as follows: OctetRED BLI.

For GRRRQRRKKRGGPLSGFSL (modifications not checked) [RI-EIP2 retroinverso peptidomimetic], the dissociation constant Kd stood at 1280 nM.

On to GRRRQRRKKRGGTFLYPPL (modifications not checked) [RI-EIP1 retroinverso peptidomimetic], for which the Kd amounted to 940 nM.
